Target: recombinant EGF (rEGF) protein with SV5 and 6xHis tags (human)
Test: ELISA; titration ELISA: plates coated with rEGF at 5 µg/mL (BSA coating for negative controls, at the maximum tested nanobody concentration), blocked with 3% skimmed milk, biotinylated nanobodies serially diluted 1 h at RT, detected with streptavidin-HRP; KD estimated by the fitting function of ref. 37; triplicates

Kd | Binder
240 nM | recombinant anti-EGF nanobody A8-1, biotinylated (VHH) VHH: QVQLVESGGGSVQAGGSLRLSCTASGNSNYQYPHFDLGWFRQAPGQEREAVAAISSGGGRTYYADSVKGRFTISRDNAKNTVTLQMNNLKPEDTAIYYCAAVGSRTRNYRYWGQGTQVTVS
370 nM | recombinant anti-EGF nanobody D6-4, biotinylated (VHH) VHH: QVQLVESGGGSVQAGGSLRLSCTASGTRRYKYNVFDLGWFRQAPGQEREAVAAISTGGGRTYYADSVKGRFTISRDNAKNTVTLQMNNLKPEDTAIYYCAARRTNNANFRYWGQGTQVTVS

Source: PMC10223678
